According to patent US8809002B2, “MUC1, caspase-8, and DED-containing proteins” (Dana-Farber Cancer Institute, Inc., priority 2008, dated 2014):
Each block holds one substance with its values, some of them ahead of it. Ends that are not written are not given here.

What was measured:
FADD [1] = target: T1, FADD (Homo sapiens, UniProt Q13158); experiment: In vitro binding assay (GST pull-down) of GST-MUC1-CD proteins with purified FADD; settings: immunoblot (FIG. 12A)
T1 sequence (Q13158 1-208): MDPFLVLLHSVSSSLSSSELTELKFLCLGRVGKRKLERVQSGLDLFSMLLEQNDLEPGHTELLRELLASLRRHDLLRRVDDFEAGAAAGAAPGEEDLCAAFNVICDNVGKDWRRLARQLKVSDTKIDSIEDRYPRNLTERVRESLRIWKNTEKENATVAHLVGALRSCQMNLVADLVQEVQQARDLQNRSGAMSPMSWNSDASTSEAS
Procedure: FIG. 12A: GST and the indicated GST-MUC1-CD proteins were incubated with purified FADD. The adsorbates and input FADD were immunoblotted with anti-FADD antibody. The GST and GSTMUC1-CD proteins were stained with Coomassie blue.
Purified GST, GST-MUC1-CD(1-72), GST-MUC1-CD deletion mutants, GST-caspase-8, GST-caspase-8 deletion mutants, GST-FADD, GST-N-FADD and GST-C-FADD protein (36) were purified from E. coli (BL21 DE3) and immobilized on glutathione-agarose beads (Pierce). His-MUC1-CD(1-72) and His-caspase-8 deletion mutant proteins were purified on Ni-NTA beads (Qiagen, Valencia, Calif.). GST and GST fusion proteins bound to glutathione beads were incubated with purified soluble proteins for 2 hours at 4° C., and washed. Adsorbates bound to the beads were analyzed by solubilizing the protein/bead mixture in Laemli buffer following by sodium dodecyl sulfate polyacrylamide gel electrophoresis (SDS-PAGE) and immunoblotting. For competition studies, GST-caspase-8 DED protein bound to FADD was incubated with increasing amounts of MUC1-CD protein. Precipitated proteins were subjected to SDS-PAGE and immunoblot analysis. In certain studies, binding was performed in the presence of a synthetic peptide ([…]) (SEQ ID NO:3) derived from amino acids 1-20 from MUC1-CD (Molecular Biology Core Facility, Dana-Farber Cancer Institute).

caspase-8 = experiment: In vitro binding assay (GST pull-down) of MUC1-CD proteins with caspase-8; set-up: species or system human; settings: immunoblot (FIG. 9A, 9D)
Procedure: FIG. 9A depicts the amino acid sequence for human MUC1-CD (SEQ ID NO:2). Phosphorylation sites and regions for β-catenin, IKKβ and IKKγ binding are indicated by brackets of arrows (upper panel). GST (glutathione-S-transferase) or GST-caspase-8 protein were incubated with purified His-MUC1-CD. The adsorbates and the input protein were immunoblotted with anti-His and anti-GST antibodies as indicated to the right of the photographs. The molecular weights of each of the proteins (in kilodaltons (kDa)) are indicated to the left of each of the photographs.
FIG. 9D: GST or the indicated GST-MUC1-CD proteins were incubated with His-caspase-8-p18 (upper panel). The adsorbates were immunoblotted with anti-His and anti-GST antibodies. GST or GST-MUC1-CD(1-20) was incubated with His-caspase-8-p18 in the presence of increasing amounts of MUC1-CD(1-20) peptide (lower panel). […] Input of the GST proteins was assessed by Coomassie blue staining.
Purified GST, GST-MUC1-CD(1-72), GST-MUC1-CD deletion mutants, GST-caspase-8, GST-caspase-8 deletion mutants, GST-FADD, GST-N-FADD and GST-C-FADD protein (36) were purified from E. coli (BL21 DE3) and immobilized on glutathione-agarose beads (Pierce). […] Adsorbates bound to the beads were analyzed by solubilizing the protein/bead mixture in Laemli buffer following by sodium dodecyl sulfate polyacrylamide gel electrophoresis (SDS-PAGE) and immunoblotting. […]

FADD [2] = target: T1, FADD; experiment: In vitro competition: GST-caspase-8(1-183) binding to FADD with increasing amounts of MUC1-CD; settings: increasing amounts of MUC1-CD protein (FIG. 12C)
Procedure: FIG. 12C: GST or GST-caspase-8(1-183) containing the DEDs was incubated with FADD in the absence or presence of increasing amounts of purified MUC1-CD. The adsorbates and input FADD were immunoblotted with anti-FADD antibody. Input of GST and GST-caspase-8(1-183) was determined by Coomassie blue staining. Input of MUC1-CD was determined by immunoblotting.
(§1) Purified GST, GST-MUC1-CD(1-72), GST-MUC1-CD deletion mutants, GST-caspase-8, GST-caspase-8 deletion mutants, GST-FADD, GST-N-FADD and GST-C-FADD protein (36) were purified from E. coli (BL21 DE3) and immobilized on glutathione-agarose beads (Pierce). His-MUC1-CD(1-72) and His-caspase-8 deletion mutant proteins were purified on Ni-NTA beads (Qiagen, Valencia, Calif.). GST and GST fusion proteins bound to glutathione beads were incubated with purified soluble proteins for 2 hours at 4° C., and washed. Adsorbates bound to the beads were analyzed by solubilizing the protein/bead mixture in Laemli buffer following by sodium dodecyl sulfate polyacrylamide gel electrophoresis (SDS-PAGE) and immunoblotting. For competition studies, GST-caspase-8 DED protein bound to FADD was incubated with increasing amounts of MUC1-CD protein. Precipitated proteins were subjected to SDS-PAGE and immunoblot analysis. […]

MUC1-CD = target: T2, MUC1-CD (Homo sapiens, UniProt P15941); experiment: In vitro binding assay of His-caspase-8-p18 fragments with GST-MUC1-CD; settings: GST-MUC1-CD on glutathione beads (FIG. 9C)
T2 construct: Purified GST, GST-MUC1-CD(1-72), GST-MUC1-CD deletion mutants; made in house; host or cells: E. coli BL21 DE3
T2 sequence (P15941 1184-1255): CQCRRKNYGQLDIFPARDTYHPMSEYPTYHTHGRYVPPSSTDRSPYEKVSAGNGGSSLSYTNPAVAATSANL
Procedure: FIG. 9C is a schematic of his-tagged caspasc-8 p18 fragment depicting the A, B, C and AB subfragments (upper panel). The shaded region denotes position of the His tag. GST or GST-MUC1-CD was incubated with the indicated His-caspase-8 proteins. The adsorbates and input proteins ( 1/10th that used in the reactions) were immunoblotted with anti-His and anti-GST antibodies as indicated to the right of the photographs.
as §1

BC-1 cells = experiment: FasL-induced apoptosis of BC-1 cells (sub-G1 DNA content); type: cell-based, human; settings: 50 ng/ml FasL, 24 hours (FIG. 1C, 1D)
Procedure: FIG. 1C: The indicated BC-1 cell populations were treated with 50 ng/ml FasL for 24 hours and then analyzed by fluorescence assisted cell sorting (FACS) to determine the sub-G1 DNA content in the cells.
FIG. 1D: The results obtained with the indicated BC-1 cell populations left untreated (open bars) or treated with FasL (solid bars) are expressed as the percentage apoptosis (mean+SD for three experiments).
Cells were fixed in 70% ethanol and incubated in PBS containing 50 μg/ml RNase and 2.5 μg/ml propidium iodide. DNA content was analyzed by flow cytometry. The percentage of cells with sub-G1 DNA was determined by the MODFIT LT Program (Verity Software, Topsham, Me.). Cells were also suspended in Annexin-V-FLOUS containing propidium iodide (Roche) and analyzed by flow cytometry.

MUC1-C = experiment: Silencing of MUC1 expression in BC-1 cells, immunoblot; type: cell-based, human; settings: lentivirus, compared to control siRNA (FIG. 1A)
Excerpt: FIG. 1A: BC-1 cells were infected with lentiviruses expressing the CsiRNA, MUC1siRNA#1 or MUC1siRNA#2. Lysates from the indicated cell populations were immunoblotted with anti-MUC1-C and anti-β-actin antibodies as indicated to the right of the photographs. The molecular weights of each of the proteins (in kilodaltons (kDa)) are indicated to the left of each of the photographs.
The BLOCK-iT Target Screening System (Invitrogen, Carlsbad, Calif.) was used to generate two MUC1-specific siRNA molecules (Sequence #1: […] (SEQ ID NO:31); or Sequence #2: […] (SEQ ID NO:32)) and a control siRNA sequence ([…]; SEQ ID NO:33). The RNAi cassettes (nucleic acids encoding the siRNA molecules) were inserted into pLenti4/BLOCK-iT-DEST by LR recombination for the generation of lentiviral vectors. BC-1 cells were infected with the lentiviruses at a multiplicity of infection of 5 in the presence of 8 μg/ml polybrene. Cell clones were selected in methylcellulose semi-solid medium containing 200 μg/ml Zeocin and assayed for downregulation of MUC1 by immunoblotting. […]
Cells were lysed by sonication in the presence of 10 mM Tris-HCl, pH 7.5, 150 mM NaCl, 5 mM EDTA, 0.5% NP-40, 100 μg/ml phenylmethylsulphonyl fluoride (PMSF), and standard protease inhibitors. […] Reactivity was detected with horseradish peroxidase-conjugated secondary antibodies and chemiluminescence (GE Healthcare Biosciences, Piscataway, N.J.).

caspase-8-p18 = target: T3, caspase-8-p18 (Homo sapiens, UniProt Q14790); experiment: In vitro binding assay: GST-MUC1-CD(1-20) with His-caspase-8-p18 in the presence of MUC1-CD(1-20) peptide; settings: increasing amounts of peptide; GST pull-down, immunoblot (FIG. 9D, lower)
T3 construct: His; made in house; host or cells: E. coli BL21 DE3 is stated for the GST proteins; no host is printed for the His proteins
Procedure: FIG. 9D: GST or the indicated GST-MUC1-CD proteins were incubated with His-caspase-8-p18 (upper panel). The adsorbates were immunoblotted with anti-His and anti-GST antibodies. GST or GST-MUC1-CD(1-20) was incubated with His-caspase-8-p18 in the presence of increasing amounts of MUC1-CD(1-20) peptide (lower panel). The adsorbates were immunoblotted with anti-caspase-8 antibody as indicated to the right of the photographs. Input of the GST proteins was assessed by Coomassie blue staining.
as §1

caspase-8, sequence (Q14790 184-384 limits assumed): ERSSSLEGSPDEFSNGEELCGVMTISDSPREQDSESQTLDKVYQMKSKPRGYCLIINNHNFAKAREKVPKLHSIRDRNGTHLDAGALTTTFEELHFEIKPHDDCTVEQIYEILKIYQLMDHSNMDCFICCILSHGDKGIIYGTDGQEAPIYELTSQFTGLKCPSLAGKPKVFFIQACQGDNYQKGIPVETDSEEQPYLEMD
T3 sequence (Q14790 184-384): as the sequence (Q14790 184-384 limits assumed) above

binding to FADD (FADD [1]): not
Substance: MUC1-CD(1-45): GST-MUC1-CD deletion mutant, amino acids 1-45 of MUC1-CD (CQCRRKNYGQLDIFPARDTYHPMSEYPTYHTHGRYVPPSSTDRSP; cysteine pairing not given here; also: GST fusion)

binding to caspase-8 (caspase-8): binds to caspase-8
binding to FADD (FADD [1]): interact directly
interaction between FADD and caspase-8 (1-183) (FADD [2]): progressive decrease
Substance: MUC1-CD: 72 amino acid cytoplasmic domain of full-length human MUC1, purified as His- or GST-tagged protein

binding to MUC1-CD (MUC1-CD): binds
Substance: caspase-8-p18-B: His-tagged fragment B of caspase-8-p18, amino acids 270-322 of human caspase-8 (KLHSIRDRNGTHLDAGALTTTFEELHFEIKPHHDCTVEQIYEILKIYQLMDHS; also: His tag; listed as Homo sapiens)

binding to caspase-8 (caspase-8): able to interact with caspase-8
Substance: MUC1-CD(1-20): GST-MUC1-CD fragment containing just amino acids 1-20 of MUC1-CD (CQCRRKNYGQLDIFPARDTY; cysteine pairing not given here; also: GST fusion)

Substance: AAGGTACCATCAATGTCCACG (expressed or natural sequence) [MUC1siRNA#1]
FasL-induced apoptosis (BC-1 cells): sensitized
MUC1-C expression (MUC1-C): stably downregulated

binding to FADD (FADD [1]): found to bind to FADD
Substance: YEKVSAGNGGSSLSYTNPAVAATSANL (also: GST fusion; listed as Homo sapiens) [MUC1-CD(46-72), GST-MUC1-CD deletion mutant, amino acids 46-72 of MUC1-CD]

binding of MUC1-CD(1-20) to caspase-8-p18 in the presence of the peptide (caspase-8-p18): inhibited
Substance: CQCRRKNYGQLDIFPARDTY (listed as Homo sapiens) [MUC1-CD(1-20) peptide, synthetic peptide derived from amino acids 1-20 from MUC1-CD]

Substance: AAGTTCAGTGCCCAGCTCTAC (expressed or natural sequence) [MUC1siRNA#2]
FasL-induced apoptosis (BC-1 cells): confirmed
MUC1-C expression (MUC1-C): similar
